This is an account of results in publication PMC6071684, “Defining the hydrophobic interactions that drive competence stimulating peptide (CSP)-ComD binding in Streptococcus pneumoniae” (Beilstein Journal of Organic Chemistry, 2018).

Where a SMILES comes first, the peptide text is derived from it. Where no end group is shown, it is not given here. [ ]: non-standard residue; d: D form. Nva = CCC[C@H](N)C(=O)O Where only a bound is given, the exact number is not on record here.

Usually EC50 stands for the concentration needed to bring the measured effect to its halfway point.

One assay concerns the target ComD1 receptor (Streptococcus pneumoniae serotype 2, UniProt A0A0H2ZM50). Kind of assay: cell-based. The procedure: (§1) To assess QS modulation, we utilized the β-gal reporter strains, constructed by Lau and co-worker. In these strains the lacZ gene is under the control of QS (pcomX). Thus, upon QS activation, ComE will bind pcomX and transcribe lacZ (in addition to upregulation of ComX). ComD modulation can therefore be quantified by measuring β-gal activity. The peptides were first screened for their ability to activate/inhibit the ComD1 and ComD2 receptors at high concentration (10 µM).
(§2) To examine the ability of the synthesized CSP analogs to modulate the ComD receptors, and thus the QS circuit in S. pneumoniae, β-galactosidase assays were performed using D39pcomX::lacZ (group I) and TIGR4pcomX::lacZ (group II) reporter strains as described in [19].
(§3) Bacterial growth conditions. Bacteria from a freezer stock were grown as described in [19]. Briefly, the bacteria were streaked into a THY agar plate supplemented with 5% donor horse serum and chloramphenicol at a final concentration of 4 µg/mL. The plate was incubated for 8 h in a CO2 incubator (37 °C with 5% CO2). Fresh colonies (single colony for D39pcomX::lacZ; multiple colonies for TIGR4pcomX::lacZ) were picked into sterilized cultural tubes containing 5 mL of THY broth supplemented with chloramphenicol at a final concentration of 4 µg/mL and the cultures were incubated in a CO2 incubator overnight (15 h). Overnight cultures were then diluted (1:50 for D39pcomX::lacZ; 1:10 for TIGR4pcomX::lacZ) with THY and the resulting solution was incubated in a CO2 incubator for 3–4 hours, until the bacteria reached early exponential stage (0.30–0.35 for D39pcomX::lacZ; 0.20–0.25 for TIGR4pcomX::lacZ) as determined by using a plate reader.
(§4) β-Galactosidase assay. Activation assays. […] Briefly, an initial activation screening was performed at high concentration (10 µM) for all CSP analogs. 2 µL of 1 mM solution of CSP analogs in dimethyl sulfoxide (DMSO) were added in triplicate to a clear 96-well microtiter plate. […] 2 µL of DMSO was added in triplicate and served as the negative control for both groups. Then, 198 µL of bacterial culture was added to each well containing CSP and analogs, the plate was incubated at 37 °C for 30 minutes, and the OD600nm was measured. In order to measure the β-galactosidase activity in the pneumococcal culture, the cells were lysed by incubating the culture for 30 minutes at 37 °C with 20 µL of 0.1% Triton X-100. In a new plate, 100 µL of Z-buffer solution (60.2 mM Na2HPO4, 45.8 mM NaH2PO4, 10 mM KCl, and 1.0 mM MgSO4 in 18 MΩ H2O; pH was adjusted to 7.0 and the buffer was sterilized before use) containing 2-nitrophenyl-β-D-galactopyranoside (ONPG) at a final concentration of 0.4 mg/mL was added, followed by 100 µL of lysate, and the plate was incubated for 3 hours at 37 °C. The reaction was stopped by adding 50 µL of 1 M sodium carbonate solution, and the OD420nm and OD550nm were measured using a plate reader. […] For calculation of Miller units, please see data analysis below.
(§5) Analysis of activation/inhibition data. Miller units were calculated using the following formula: […]
(§6) Abs420 is the absorbance of ortho-nitrophenol (ONP). Abs550 is the scatter from cell debris, which, when multiplied by 1.75 approximates the scatter observed at 420 nm. t is the duration of incubation with ONPG in minutes, v is volume of lysate in milliliters, and Abs600 reflects cell density.

In the next assay the target is ComD2 receptor (Streptococcus pneumoniae serotype 4, UniProt A0A0H2US84). Kind of assay: cell-based. Conditions: for ComD2 primary agonism screening: low induction, EC50 not determined: TIGR4pcomX::lacZ, 10 µM peptide, only analogs with greater than 75% activation compared to CSP2 were taken to EC50. The procedure:
as §1, §2, §3, §4, §5, §6

The target in assay [1] is ComD1 receptor (S. pneumoniae (endogenous in D39pcomX::lacZ)).
The target in assay [2] is ComD2 receptor (S. pneumoniae (endogenous in TIGR4pcomX::lacZ)).

ComD2 receptor, sequence (A0A0H2US84 entry or part of it): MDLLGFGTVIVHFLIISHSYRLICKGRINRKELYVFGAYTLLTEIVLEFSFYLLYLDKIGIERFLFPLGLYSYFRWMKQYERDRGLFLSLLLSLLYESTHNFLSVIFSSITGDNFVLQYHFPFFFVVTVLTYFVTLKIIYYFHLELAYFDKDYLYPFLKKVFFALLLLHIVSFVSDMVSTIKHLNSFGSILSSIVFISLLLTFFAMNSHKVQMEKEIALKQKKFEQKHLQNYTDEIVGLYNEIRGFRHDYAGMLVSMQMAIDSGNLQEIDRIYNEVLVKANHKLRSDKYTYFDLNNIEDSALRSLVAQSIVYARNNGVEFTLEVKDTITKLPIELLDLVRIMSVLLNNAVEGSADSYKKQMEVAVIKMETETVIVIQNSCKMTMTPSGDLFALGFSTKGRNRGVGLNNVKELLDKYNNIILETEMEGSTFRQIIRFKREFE
ComD1 receptor, sequence (A0A0H2ZM50 entry or part of it): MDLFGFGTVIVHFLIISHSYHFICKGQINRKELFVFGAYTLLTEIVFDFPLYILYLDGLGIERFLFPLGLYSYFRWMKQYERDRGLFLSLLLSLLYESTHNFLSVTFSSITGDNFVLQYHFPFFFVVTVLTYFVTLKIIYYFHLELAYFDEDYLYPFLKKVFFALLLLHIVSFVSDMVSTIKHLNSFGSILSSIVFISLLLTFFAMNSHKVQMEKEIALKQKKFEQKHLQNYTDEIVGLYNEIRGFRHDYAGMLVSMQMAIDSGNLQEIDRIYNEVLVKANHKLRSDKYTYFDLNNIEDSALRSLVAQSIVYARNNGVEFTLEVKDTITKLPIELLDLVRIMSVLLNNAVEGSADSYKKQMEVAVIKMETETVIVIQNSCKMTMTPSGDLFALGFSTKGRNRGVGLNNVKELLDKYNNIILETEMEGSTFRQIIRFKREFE

Take `CCCC[C@H](NC(=O)[C@@H](NC(=O)[C@H](Cc1ccccc1)NC(=O)[C@H](CC(=O)O)NC(=O)[C@H](CCCNC(=N)N)NC(=O)[C@H](Cc1ccccc1)NC(=O)[C@H](Cc1ccccc1)NC(=O)[C@H](CCCCN)NC(=O)[C@H](CO)NC(=O)[C@H](CC(C)C)NC(=O)[C@H](CCCNC(=N)N)NC(=O)[C@H](CCSC)NC(=O)[C@@H](N)CCC(=O)O)[C@@H](C)CC)C(=O)N[C@@H](CCC(N)=O)C(=O)N[C@@H](CCCNC(=N)N)C(=O)N[C@@H](CCCCN)C(=O)N[C@@H](CCCCN)C(=O)O` [CSP1-L13NL]: the EC50 was 18.6 nM on ComD1 receptor and above 1000 nM on ComD2 receptor.
The like results for `CCC[C@H](NC(=O)[C@@H](NC(=O)[C@H](Cc1ccccc1)NC(=O)[C@H](CC(=O)O)NC(=O)[C@H](CCCNC(=N)N)NC(=O)[C@H](Cc1ccccc1)NC(=O)[C@H](Cc1ccccc1)NC(=O)[C@H](CCCCN)NC(=O)[C@H](CO)NC(=O)[C@H](CC(C)C)NC(=O)[C@H](CCCNC(=N)N)NC(=O)[C@H](CCSC)NC(=O)[C@@H](N)CCC(=O)O)[C@@H](C)CC)C(=O)N[C@@H](CCC(N)=O)C(=O)N[C@@H](CCCNC(=N)N)C(=O)N[C@@H](CCCCN)C(=O)N[C@@H](CCCCN)C(=O)O` [CSP1-L13NV] (H-EMRLSKFFRDFI[Nva]QRKK-OH; N-terminus assumed) were, in that order, 15.2 nM and above 1000 nM.
As to CSP1-F7HF (peptide), the EC50 of activation of pcomX::lacZ (β-galactosidase) in reporter strain D39pcomX::lacZ (group I, ComD1) in assay [1] came to 81.7 nM. In assay [2], the EC50 of activation of pcomX::lacZ (β-galactosidase) in reporter strain TIGR4pcomX::lacZ (group II, ComD2) was determined as 317 nM.
For the compound CSP1-F8HF (peptide), the EC50 of activation of pcomX::lacZ (β-galactosidase) in reporter strain D39pcomX::lacZ (group I, ComD1) in assay [1] was found to be 43.4 nM. For the same compound, the EC50 of activation of pcomX::lacZ (β-galactosidase) in reporter strain TIGR4pcomX::lacZ (group II, ComD2) in assay [2] was above 1000 nM.
The corresponding values for CSP1-I12L (peptide) are 8.56 nM and 537 nM.
The like results for CSP1-I12NL (peptide) were, in that order, 6.68 nM and above 1000 nM.
In assay [1], CSP1-I12NV (peptide) showed an EC50 of activation of pcomX::lacZ (β-galactosidase) in reporter strain D39pcomX::lacZ (group I, ComD1) of 13.8 nM. This compound had an EC50 of activation of pcomX::lacZ (β-galactosidase) in reporter strain TIGR4pcomX::lacZ (group II, ComD2) in assay [2] of 853 nM.
The like results for CSP1-L4I (peptide) were, in that order, 10.2 nM and above 1000 nM.
Turning to CSP1-L4NL (peptide), the EC50 of activation of pcomX::lacZ (β-galactosidase) in reporter strain D39pcomX::lacZ (group I, ComD1) in assay [1] stood at 13.5 nM. Further, the EC50 of activation of pcomX::lacZ (β-galactosidase) in reporter strain TIGR4pcomX::lacZ (group II, ComD2) in assay [2] was above 1000 nM.
Consider CSP1-L4NV (peptide), for which the EC50 of activation of pcomX::lacZ (β-galactosidase) in reporter strain D39pcomX::lacZ (group I, ComD1) in assay [1] was found to be 5.74 nM. Besides, the EC50 of activation of pcomX::lacZ (β-galactosidase) in reporter strain TIGR4pcomX::lacZ (group II, ComD2) in assay [2] was 627 nM.
Compound CSP1-L13I (peptide) showed an EC50 of activation of pcomX::lacZ (β-galactosidase) in reporter strain D39pcomX::lacZ (group I, ComD1) in assay [1] of 9.12 nM. In assay [2], this compound returned an EC50 of activation of pcomX::lacZ (β-galactosidase) in reporter strain TIGR4pcomX::lacZ (group II, ComD2) of 705 nM.
The corresponding values for CSP1-L13NL (peptide) are 18.6 nM and above 1000 nM.
In turn, CSP1-L13NV (peptide) gave an EC50 of activation of pcomX::lacZ (β-galactosidase) in reporter strain D39pcomX::lacZ (group I, ComD1) in assay [1] of 15.2 nM. This compound showed an EC50 of activation of pcomX::lacZ (β-galactosidase) in reporter strain TIGR4pcomX::lacZ (group II, ComD2) in assay [2] above 1000 nM.
As for EMRISKFFRDFILQRKK-OH [CSP1-L4I], the EC50 on ComD1 receptor is 10.2 nM; at ComD2 receptor, above 1000 nM.
EMRLSKFYRDFILQRKK-OH [CSP1-F8Y]: the EC50 at ComD1 receptor was 85 nM. The “ComD2 primary agonism screening: low induction, EC50 not determined” value at ComD2 receptor was “–^e”.
Regarding EMRLSKYFRDFILQRKK-OH [CSP1-F7Y], the concentration giving a half-maximal response (EC50) on ComD1 receptor was determined as 344 nM. Further, the “ComD2 primary agonism screening: low induction, EC50 not determined” value on ComD2 receptor was “–^e”.
The like results for EMRVSKFFRDFILQRKK-OH [CSP1-L4V] were, in that order, 113 nM and “–^e”.
